Data published in patent publication US20030040044A1.

Columns and labels:
[1] = target: αVβ3 integrin on human cells (human) (UniProt P06756)
[2] = target: αVβ3 integrin on human cells (human) (UniProt P06756); test: saturation binding of 125-I ReoPro to M21 cells (express αvβ3 and αvβ5; ReoPro showed no binding to αvβ5), n = 3
[3] = target: αVβ3 integrin on human cells (human) (UniProt P06756); test: saturation binding of 125-I ReoPro to M21 cells, Bmax, n = 7
[4] = target: αVβ3 integrin on human cells (human) (UniProt P06756); test: saturation binding of 125-I ReoPro to A375S2 cells (express αvβ3 and αvβ5; ReoPro showed no binding to αvβ5), n = 3
[5] = target: αVβ3 integrin on human cells (human) (UniProt P06756); remark: listed apart in the source
[6] = target: αVβ3 integrin on human cells (human) (UniProt P06756); test: saturation binding of 125-I ReoPro to A375S2 cells, Bmax, n = 6

Adhesion (%) of HUVEC to fibrin (% of adhesion without antibody) [1]: 35.8 | Adhesion (%) of HUVEC to fibrinogen (% of adhesion without antibody) [1]: 8.7 | Adhesion (%) of HUVEC to gelatin (% of adhesion without antibody) [1]: 2.5 | Adhesion (%) of HUVEC to vitronectin (% of adhesion without antibody) [1]: 54.9 | Kd [2]: 0.01 µM | Receptors per cell (receptors per cell) [3]: 660000 | Kd [4]: 0.022 µM | Adhesion (%) of A375S.2 cells to fibrin (% of adhesion without antibody) [5]: 12.9 | Adhesion (%) of A375S.2 cells to fibrinogen (% of adhesion without antibody) [5]: 6.5 | Adhesion (%) of A375S.2 cells to gelatin (% of adhesion without antibody) [5]: 6 | Adhesion (%) of A375S.2 cells to vitronectin (% of adhesion without antibody) [5]: 38.1 | Receptors per cell (receptors per cell) [6]: 370000
B1: ReoPro (Fab, INN chains, looked up, V domains shown)
VH: EVQLQQSGTVLARPGASVKMSCEASGYTFTNYWMHWVKQRPGQGLEWIGAIYPGNSDTSYIQKFKGKAKLTAVTSTTSVYMELSSLTNEDSAVYYCTLYDGYYVFAYWGQGTLVTVSA
VL: EIVLTQSPVTLSVTPGDSVSLSCRASRDISNNLHWFQQTSHESPRLLIKYASQSMSGIPSRFSGSGSGTDFTLSINSVETEDFGMYFCQQTNSWPYTFGGGTKLEIK
modifications: Fab 125I label in some assays
